Test results as given in publication PMC1182371.

Molecular target: KLF15-ZF-GST (human) (UniProt Q9UIH9)
Assay: DNase I footprinting
Settings: EMSA: 4 mM HEPES, 5 mM EGTA, 100 mM KCl, 0.25 mM ZnCl2, 0.02% NP40, 0.1 M DTT, 4% glycerol, 90-120 min on ice, pH not stated, footprinting: same buffer

Sequence of KLF15-ZF-GST (human) (Q9UIH9 294-416): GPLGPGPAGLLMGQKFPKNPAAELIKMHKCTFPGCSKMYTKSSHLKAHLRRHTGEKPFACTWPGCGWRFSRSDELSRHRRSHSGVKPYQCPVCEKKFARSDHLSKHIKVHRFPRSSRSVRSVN

Sequence | binding
CGCCGGCGGCGCGAACCCGGGGATGCTTCTGAGGCCGGAGCTCAGCCACACGGGGCTCCGGCTGGACGACTCGTGGCTCCAACTCCCCCCCCAGGCCCTTATGAAGTGACCTCCCCTCCCTAAGCTCCCGGCTGAATCAGCACCTCGGAGATTGGGGGCGTTATTAATCATATTAATCCTCACTGCTGCAACGAGGGGCTTAATTGGCTTCCAGGTGGGGCCAAGGTGACTCCAGGTAGAAGGCTGTGGTCGGGGAGAAGGCGGGGCGTGCTGGGGACCCTGGGAAAGAGCAGAGGCCT (double strand) [bovine Rho -225 to +70] | binds
GAAGTGACCTCCCCTCCCTAAGCTCCCGGCTGAATCAGCACCTCGGAGATTGGGGGCGTTATTAATCATATTAATCCTCACTGCTGCAACGAGGGGCTTAATTGGCTTCCAGGTGGGGCCAAGGTGACTCCAGGTAGAAGGCTGTGGTCGGGGAGAAGGCGGGGCGTGCTGGGGACCCTGGGAAAGAGCAGAGGCCTGCCCCCAACTCCCCTGTCCCCCTCTGGCATCTCAGCTGATGGCCCTGGCCTGGCATTGGGACCCCTAGCTCTAGGCCCACTTCCCTCT (double strand) [bovine Rho -315 to -31] | binds
